The target in one experiment is T1, GST-NΔ173 Tec (Homo sapiens, UniProt P42680).
T1 construct: made in house; host or cells: Tec: SF9 insect cells (baculovirus); FGF2: E. coli
The experiment is described as follows: Steady-state fluorescence polarization, FGF2 binding to GST-NΔ173 Tec. To be noted: fluorescein-labeled FGF2 50 nM, 1:1 stoichiometry, ± SEM; read-out: dissociation constant FGF2 / GST-NΔ173 Tec. As for the experimental part: (§1) (A) Fluorescence polarization experiments were conducted using fluorescein-labeled FGF2. FGF2 (at a constant concentration of 50 nM) was incubated with increasing concentrations (0 to 20 μM) of the various Tec constructs indicated. Following incubation for 3 hours at room temperature, changes in polarization (ΔPolarization in mP) were recorded. A non-linear regression analysis was conducted (GST-NΔ173 Tec: black circles, n=8; SH1 kinase domain: green squares, n=5; GST-PH-TH: blue triangles, n=3; GST-SH3-SH2: red triangles, n=3; GST: orange rhombuses, n=5) and standard errors of the mean (SEM) were calculated. As detailed in Experimental Procedures, assuming a binding stoichiometry of 1:1, dissociation constants were calculated to be 1.434 μM±0.55 (SEM) for GST-NΔ173 Tec and 1.032 μM±0.29 (SEM) for the SH1 kinase domain of Tec. FIG. 2A discloses “His6” as SEQ ID NO: 2.
(§2) To determine binding affinity between Tec kinase and FGF2, steady-state fluorescence polarization was used. […] Based on the extinction coefficients of both His-tagged FGF2 and fluroscein-5-maleimide, the degree of labeling was determined to be 30%. […] Absolute protein concentrations were determined based upon the extinction coefficients calculated for each protein and measuring absorption at 280 nm using a NanoDrop 1000 spectrophotometer. […]
Background: In fluorescence polarisation assays a small probe gives low polarisation when free and higher when bound to something large.

The target in another experiment is T2, SH1 kinase domain of Tec (Homo sapiens, UniProt P42680).
T2 construct: yielding a homogenous preparation of the SH1 kinase domain; His (N, cleaved yes); made in house; host or cells: Tec SH1: SF9 insect cells (baculovirus); FGF2: E. coli
Kind of experiment: Steady-state fluorescence polarization, FGF2 binding to SH1 kinase domain of Tec. To be noted: fluorescein-labeled FGF2 50 nM, 1:1 stoichiometry, ± SEM; read-out: dissociation constant FGF2 / SH1 kinase domain of Tec. As for the experimental part: as §1, §2

T2 sequence (P42680 370-623 limits assumed): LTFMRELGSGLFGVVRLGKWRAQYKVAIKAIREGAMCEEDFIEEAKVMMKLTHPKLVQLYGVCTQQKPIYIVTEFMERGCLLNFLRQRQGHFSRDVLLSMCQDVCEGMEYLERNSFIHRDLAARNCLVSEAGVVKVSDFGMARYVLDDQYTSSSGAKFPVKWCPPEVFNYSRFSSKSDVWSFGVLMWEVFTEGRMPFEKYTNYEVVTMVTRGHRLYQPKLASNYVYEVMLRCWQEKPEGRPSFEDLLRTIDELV
T1 sequence (P42680 174-631, stated change not applied): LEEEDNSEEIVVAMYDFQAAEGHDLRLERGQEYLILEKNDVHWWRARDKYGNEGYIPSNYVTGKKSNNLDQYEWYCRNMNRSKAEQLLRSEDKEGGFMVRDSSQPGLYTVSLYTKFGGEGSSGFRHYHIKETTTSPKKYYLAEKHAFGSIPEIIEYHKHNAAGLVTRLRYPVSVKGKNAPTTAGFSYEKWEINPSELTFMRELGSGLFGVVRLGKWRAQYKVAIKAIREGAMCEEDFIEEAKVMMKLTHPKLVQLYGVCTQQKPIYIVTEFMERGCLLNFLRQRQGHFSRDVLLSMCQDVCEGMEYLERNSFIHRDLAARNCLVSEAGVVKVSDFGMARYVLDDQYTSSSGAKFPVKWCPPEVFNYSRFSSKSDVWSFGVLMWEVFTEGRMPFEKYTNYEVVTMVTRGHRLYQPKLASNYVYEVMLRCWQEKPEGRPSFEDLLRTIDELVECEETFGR

For “FGF2: recombinant fibroblast growth factor 2, His-tagged and fluorescein-labeled for fluorescence polarization”, the Kd is 1430 nM in the experiment with GST-NΔ173 Tec and 1030 nM with SH1 kinase domain of Tec.

The values are drawn from patent US10842793B2, “Inhibitors of the unconventional secretion of fibroblast growth factor 2 (FGF2) by tumor cells and uses thereof” (Universität Heidelberg, priority 2016, dated 2020).
